Two molecules from patent US20240294622A1 (SUZHOU TRANSCENTA THERAPEUTICS, published 2024) can be followed below.

For assay [1], the target named is T1, HGREM1-His (ACRO) (human, UniProt O60565 25-184).
T1 construct: Lys25-Asp184 of NP_037504 with C-terminal polyhistidine tag (ACRO GR1-H52H3); they are put here; also called hGREM1 (ACRO); human gremlin (ACRO)
T1 sequence: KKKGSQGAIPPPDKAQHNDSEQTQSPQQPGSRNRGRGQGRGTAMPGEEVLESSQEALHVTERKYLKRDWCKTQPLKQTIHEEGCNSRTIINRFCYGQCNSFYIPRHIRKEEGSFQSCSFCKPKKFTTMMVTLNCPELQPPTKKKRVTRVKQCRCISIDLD
Put plainly: ELISA on coated hGREM1 (Example 5: ACRO; sheet title: DAN Family,R&D,0.5ug/ml), anti-mouse IgG-HRP. On the procedure:
In addition, the specificity of the binding of 14E3 and a benchmark antibody was assessed with ELISA. Briefly, clear polystyrene plates (BEAVER) were coated with 100 μl/well of a […] hGREM1 (ACRO), or human gremlin-2 (R&D), human COCO (R&D) and human DAN protein (R&D) in high pH coating buffer overnight at 4° C. Then the plates were washed once on an automatic plate washer using PBS+0.1% Tween 20 (Sigma). 100 μl of block solution consisting of PBS+1% BSA+1% normal goat serum+0.5% Tween 20 (Sigma) was added to each well and incubated at room temperature for 2 hours. Then 100 ul of antibodies in antibody dilution buffer containing PBS+1% BSA+1% normal goat serum+0.01% Tween 20 starting from 2 μg/ml and then 5 fold serial dilution were added to each well of the plate and incubated for 1 hours at room temperature. Afterward the plates were washed three times with 200 ul of PBS+0.1% Tween20 followed by adding 100 μl/well 1:10000 Goat anti mouse IgG-HRP (Abcam), and incubate for 1 hour at room temperature. They were then washed 3× with PBS+0.1% Tween20. Finally, 100 µl/well of TMB (Pierce) was added to each well and after 5 minutes add 50 ul of stop solution to each well. The plates were read on a Multiscan FC microplate reader (Thermo Scientific) at […].

Assay [2] deals with T1, HGREM1-His (ACRO). Description: competition ELISA on captured human gremlin (Acro,0.5ug/ml), upper panel: hybridoma 14E3 titrated against a fixed amount of chimeric 22F1-C, bound chimeric antibody detected. On the procedure: Epitope binning of anti-gremlin hybridoma antibodies were performed using a competition ELISA assay. Clear polystyrene plates (BEAVER) were coated with 100 μl/well of a 0.5 μg/ml hGREM1 (ACRO) in high pH coating buffer overnight at 4° C. Then the plates were washed once on an automatic plate washer using PBS+0.1% Tween 20 (Sigma). 100 μl of block solution consisting of PBS+1% BSA+1% normal goat serum+0.05% Tween 20 (Sigma) was added to each well and incubated at room temperature for 2 hours. Then 50 μl/well of 20 μg/ml saturated antibodies (hybridoma antibodies) in antibody dilution buffer (PBS+1% BSA+1% normal goat serum+0.01% Tween 20) were then added to each well of the plate and incubate for 1 hour. Then add 50 μl/well of 40 ng/ml competitive antibodies (chimeric antibodies, e.g., 14E3-C, 22F1-C, 56C11-C, and 69H5-C) to each well of the plate and incubate for another 1 hour at room temperature. […] The plates were read on a plate reader at 450 nm. The failure of the second antibody to bind in the presence of saturating quantities of the first antibody indicates the two antibodies were in the same epitope bin; the success of the second antibody to bind in the presence of the saturating quantities of the first antibody indicates the two antibodies were in different epitope bins. […]
The amount of chimeric antibody bound to gremlin were determined.

For a further assay, the target named is T2, DAN-his (Sinobiological) (human, UniProt P41271 17-181, limits assumed).
T2 construct: also called DAN (Sinobiological); human DAN-his
T2 sequence (looked up): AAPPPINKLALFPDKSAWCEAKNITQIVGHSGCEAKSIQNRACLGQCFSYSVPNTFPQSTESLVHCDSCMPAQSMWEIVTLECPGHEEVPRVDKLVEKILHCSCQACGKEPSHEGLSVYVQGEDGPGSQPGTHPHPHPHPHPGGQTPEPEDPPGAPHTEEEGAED
Put plainly: ELISA on coated DAN-his; unit from the axis Ab(nM). On the procedure: Clear polystyrene plates (BEAVER) were coated with 100 μl/well of a 0.5 μg/ml human gremlin (ACRO) and DAN (Sinobiological) in high pH coating buffer overnight at 4° C. Then the plates were washed once on an automatic plate washer using PBS+0.1% Tween 20 (Sigma). 100 μl of block solution consisting of PBS+1% BSA+1% normal goat serum+0.5% Tween 20 (Sigma) was added to each well and incubated at room temperature for 2 hours. Then 100 ul of antibodies (hybridoma or chimeric antibody 36F5, chimeric antibody 67G11, chimeric antibody 42B9) in antibody dilution buffer containing PBS+1% BSA+1% normal goat serum+0.01% Tween 20 starting from 2 μg/ml (13.33 nM) and then 4 fold serial dilution were added to each well of the plate and incubated for 1 hours at room temperature. Afterward the plates were washed three times with 200 ul of PBS+0.1% Tween20 followed by adding 100 μl/well 1:10000 Goat anti mouse IgG-HRP or mouse anti-human IgG-HRP (abcam), and incubate for 1 hour at room temperature. They were then washed 3× with PBS+0.1% Tween20. Finally, 100 μl/well of TMB (InnoReagents) was added to each well and after 2 minutes add 50 ul of stop solution to each well. The plates were read on a Multiscan FC microplate reader (Thermo Scientific) at 450 nm.

Assay [3] has as its target T1, HGREM1-His (ACRO). Description: blocking ELISA, Human Gremlin-1 binding to BMP2; column Percentage. As for the experimental part: In addition, the ability of serial dilutions of antibodies provided herein to block Gremlin binding to human BMP2/4/7 was also examined via ELISA. Plates were coated with recombinant human BMP2/4/7 (0.5 μg/ml) overnight and then serial dilutions of antibodies were incubated with 1 μg/ml of human Gremlin-his modified for 1 h at RT before this complex was added to coated plates and allowed to incubate for an additional hour at RT. The plates were then washed and added with anti-his HRP (GenScript). Plates were then developed with a TMB solution and stopped by adding stop solution. The plates were read on a plate reader at 450 nm. […] The chimeric anti-gremlin 1 antibodies (69H5-chi) and chimeric anti-gremlin 1 antibodies (22F1-chi) also can inhibit the binding of gremlin to BMP2 and BMP4 (see, FIG. 3E and FIG. 3F). The chimeric anti-gremlin 1 antibodies (56C11-chi) can inhibit the binding of gremlin to BMP2 (see, FIG. 3E).

B1: 14E3 (antibody, V domains shown)
VH: QIQLVQSGPELKKPGETVKISCKTSGSTFTTYGMAWMKQAPGKGLTWMGWINTLSGEPTYADDFKGRFAFSLKTSANTAYLQINNLKNEDAATYFCAREPMDYWGQGTSVIVSS
VL: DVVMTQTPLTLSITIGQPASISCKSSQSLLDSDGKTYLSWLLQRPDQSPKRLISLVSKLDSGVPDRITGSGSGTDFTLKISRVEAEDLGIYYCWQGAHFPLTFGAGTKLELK
notes: mouse hybridoma antibody; also called hybridoma 14E3; anti-gremlin1 antibody 14E3
As to B1, in the assay with HGREM1-His (ACRO) [1], the “EC50 (read off the curve)” value was about 0.01 µg/mL. In the assay with HGREM1-His (ACRO) [2], the “IC50 (read off the curve)” value was about 1 µg/mL.

B2: 36F5 (antibody, V domains shown)
VH: QVQLQQSGAELARPGASVKLSCKASGYSFTSSGIGWVKQRSGQGLEWIGEIYPRSGNTYNNEKFKGKATLTADKSSSTVYMELRSLTSEDSAVYFCVREAYSHHYYAMDYWGQGTSVTVFS
VL: DVLMTQTPLSLPVSLGGQASISCRSSQSLLHSNGNTYLEWYLQKPGQSPKLLIYKVSNRFSGVPDRLSGSGSGTDFTLKISRVEAEDLGVYYCFQGSHVPFTFGSGTKLEIN
notes: mouse hybridoma antibody; also called hybridoma 36F5
B2: the EC50 with DAN-his (Sinobiological) was determined as 0.0309 nM. Also, the IC50 with HGREM1-His (ACRO) [3] is 0.604 µg/mL.
